Test results taken from the DeepSol protein solubility set.

Experiment: soluble on expression in E. coli; label from the status in PepcDB or PDB records

## LDDKTGLGTILNPQATYFDYQATQSGAGSFNYTVKGDNLTATSQIVLAVNAGETPGNNIPVADNITLSTFNNVDAIIDLSAYITDADGDTLRINKLVSASNRFTLNGFQVTFAPDGFVGVDQAVYSVDDGRGGYALAYIVVTSNDANPPAPNTAPVAKDDSLSMDVAKQSVLNINLSGLISDADGDSLKVVTLYSHNDRAVLKENASVDYTPGNFRGVDQFTYLVSDGKGGYDLGTVTVTVGDSTPPTPPTPSLVAYQQAFVLDVDQLQTIDVTQSVTSEHLDAWSLTTVQDSTNLGVVSAKTATTFNYLAQTPGVAQIDYSVQGGSLSANSTITVAINAPVTPDNHRPEAQDTQLETLNNASKTIDLQGKISDVDGDTLSITLHGSARFSLNGTQVTFTPNGFVGLDQAVYSVEDGKGGYALANIVAISEDANPPVPNMAPTANDAQFTLDVAKNVTFNIDLVAQRLIADADGDALSIAHIYTANNRATKQGATGITYTPGAFRGVDQFTYVITDGKDGYAINAITVVVNDSTPANKIPTAGPVTAKMLHNDPAITISVNSAVSDADGDTLKIVSISGALGQASINPANALEMLYEPKGFVGTDRFVYVVSDDNGGYAMGEVTVTVTDSNPTAPVANTVQENTLLDTPINIDLSAYISDKETETANLVISNVTNATSPAVATLSGQTVIYTPNGFTGNDILTYTVTDGRH
  soluble on expression in E. coli: not soluble

## MSLDLPSRPPAPPEGVIGRRIRYADALEPEREEWFVAGTELAEVTAPEAPTPRIETPADGMIIALDPDIPARNQKLILRARPARAGMSFLLDGRPVGPAETPVKWPPEPGGHVLKLMDDRGRTLDLVKFQVRGMREGHHHHHH
  soluble on expression in E. coli: soluble

## MSKVIIPKIVGHRGVGKEGLAPENTLRSFVLCMERNIPYIETDLRVCKTGEIVLFHGTPEGTIPFYKDGTSRIGDLSLEELKRLDVGGGHTIPSLEELFVAIEEQKFNLKLNLELKGEEWKRKESGDHQRLLLLVEKYHMQERVDYCSFHHEALAHLKALCPDVKITYLFNYMGQPTPLDFVEQTQKACYGDANGVSMLFHYLTKEQVCTAHEKGLSVTVWMPWIFDDSEEDWKKCLELQVDLICSNYPFGLMNFLSNISE
  soluble on expression in E. coli: soluble

## MGSDKIHHHHHHMKKRFIYHDEKSNKFWWIDYEGDSLAVNYGKVGSIGKFQTKEFDNEEQCLKEASKLIAAKMKKGYQEDPKFNFMDRYYFDDEEIGLHVKTSHPNFQCHFTDPLYMCCWDEESPFGSDEGADALNVLENSLRKEPDLDCADFPQMLIETMWGMKYIAMDSILEEDVRAQLLVDEMSTIQSNMITYATAFGQIKVMGKISHKLKKMGLNALARHQLTAKILQWGDGQDSPILQKMIDDLTAFPHEN
  soluble on expression in E. coli: not soluble

## MKKKADFLELFAVEKPIIGVIHLKGKTDQEIQERAKKEIQIYSEHGVDAILMENYYGDYVQLEKALQYVTSLDLPIPIGVNVLNVDPLGFHLANKYHLQFLQIDSVVGHVKPRDEASLQAFFDLYRAKTTAKLIGGVRFKYQPMLSEKSVEEDLKIAQQRCDAIAVTENATGEETSLEKIKLFRKQLPEFPLIVAAGLNDKSVKEQLAICDAAIVGSNFKDTRKDTGDIYAPYVDSFMKIVKELRGELEHHHHHH
  soluble on expression in E. coli: soluble

## SQEKVSIEQQLAVESIRKFLNSKTSYDVLPVSYRLIVLDTSLLVKKSLNVLLQNSIVSAPLWDSKTSRFAGLLTTTDFINVIQYYFSNPDKFELVDKLQLDGLKDIERALGVDQLDTASIHPSRPLFEACLKMLESRSGRIPLIDQDEETHREIVVSVLTQYRILKFVALNCRETHFLKIPIGDLNIITQDNMKSCQMTTPVIDVIQMLTQGRVSSVPIIDENGYLINVYEAYDVLGLIKGGIYNDLSLSVGEALMRRSDDFEGVYTCTKNDKLSTIMDNIRKARVHRFFVVDDVGRLVGVLTLSDILKYILLGS
  soluble on expression in E. coli: soluble

## AIAGRKSNRAKEKKQRRLEERAAMDAVCAKVDAANKLEDPLSAMPVFKKYDRNGLNLQIECKRVTALSPDTVEWAYELTRANMQTLYEQSEWGWKEREKREEMKDERAWYLLARDADSTPLAFSHFRFDVECGDEVLYCYEVQLESKVRRKGLGKFLIQILQLIANSTQMKKVMLTVFKHNHGAYQFFREALQFEIDETSPSMSGCCGEDCSYEILSRRTKYGEVSGHAHGGHCGGCCH
  soluble on expression in E. coli: soluble

## MDALEGESFALSFSSASDAEFDAVVGYLEDIIMDDEFQLLQRNFMDKYYLEFEDTEENKLIYTPIFNEYISLVEKYIEEQLLQRIPEFNMAAFTTTLQHHKDEVAGDIFDMLLTFTDFLAFKEMFLDYRAEKEGRGLDLSSGLVVTSLCKSSSLPASQNNLRHGHHHHHH
  soluble on expression in E. coli: not soluble

## MFERNREATMIFNIQRYSTHDGPGIRTVVFLKGCSLGCRWCQNPESRARTQDLLYDPRLCLEGCKLCAKTAPEVIERALNGLLIHREKLTPEHFTALTDCCPTQALTVCGEVKSVEEIMATVLRDKPFYDRSGGGLTLSGGEPFMQPEMATALLQASHEAGIHTAVETCLHVPWKYIAPSLPYIDLFLADLKHVADAPFKQWTDGNAARVLDNLKKLAAAGKKIIIRVPLIQGFNADETSVKAITDFAADELHVSEIHFLPYHTLGINKYHLLNLPYDAPEKPLDAPELLDFAQQYACQKGLTATLRG
  soluble on expression in E. coli: not soluble

## MGSDKIHHHHHHMMPIRRPFGRGPAVSLFTLGTMRAIGSAEQMYGVVKAAQAAGINHIETSPAYGPAESFLGTALRQLQQKQAEPSGGWVITSKLLPGLSLKEGQCELHNLLARLGRPKLENLAVHGLNRPEHLEWALSGDGAALLRWAEEEDLVVQVGFTSHGSFPLIKEALASGRFQFCSLHLHLLDPERIPLAREALASGMGVMAISPADKGGRLQDPSPTLVEDCSPLSPLQLAYRFLLAAKISTLSLGAAQPEDLTLAAQLANADGPLNQREQRALNQLRQQGERRLGENRCGQCKACLPCPKSVPIPDLLRLRNLAVGHNLQAFTEERYNLIGRAGHWWEGIDGSACERCGECLPRCPHHLPIPDLLADTHQRLAAAPRRRLWG
  soluble on expression in E. coli: not soluble
